# B1: TPR t1 (parent)
# chain: GACCAAUCUGCCCUCAGAGCUCGAGAACAUCUUCGGAUGCAGAGGAGGCAGGCUUCGGUGGCGCGAUAGCGCCAACGUCCUCAACCUCCAAUGCAUCCCACCACAUGAUGAUGCCUGAAGAGCCUUGGUUUUUUG
# Variants of: B1
# Assay: polymerase ribozyme fitness, log enrichment relative to wild type (log ratio); higher = more active; in vitro selection for triplet polymerase activity
# How it was run: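 Streptavidin-bead capture of gel-excised extended constructs, followed by RT-PCR, closed a single triplicate in vitro selection round. That round began by annealing PCR-built, transcribed mutant libraries of each subunit of a heterodimeric triplet polymerase ribozyme with a biotinylated primer, the partner subunit and triplets, then incubating them frozen at −7 °C. After Illumina sequencing of inputs and outputs, genotypes needed ≥10 input reads and ≥1 read per output. Fitness is the base-2 logarithm of genotype enrichment over wild-type enrichment, using inverse-variance-weighted replicate averages.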
row,Variant,polymerase ribozyme fitness (log ratio)
1,GACCAAUCUACCUUCAGAGCUCGAGAUCAUCUUCGGAUGCAGAGGAGGCAGGCUUCGGUGGCGCGAUAGCGCCAACGUCCUCAACCUCCAAUGCAUCCCACCACAUGAUGAUGCCUGAAGAGCCUUGGUUUUUUG [G10A C13U A27U],-2.05
2,GACCAAUCUACCCUCAGAGCUCGAGAACAUCUUCGGUUGCAGAGUAGGCAGGCUUCGGUGGCGCGAUAGCGCCAACGUCAUCAACCUCCAAUGCAUCCCACCACAUGAUCAUGCCUGAAGAGCCUUGGUUUUUUG [G10A A37U G45U C80A G110C],-7.42
3,GACCAAUCUACCCUCAGAGCUCGAGCACAUCUUCGUAUGCAGAGCAGGCAUGCUUCGGUGGCGCGAUAGUGCCAACGUACUCAACCUCCAAUGCAUCUCACCACAUGAUGAUGCCUGAAGAGUCUUUGUUUUUUG [G10A A26C G36U G45C G51U C70U C79A C98U C123U G127U],-8.21
4,GACCAAUCUACCCUCAGAGCUCGAGAACAUCUUCGGAUGCAGAGGAGGCAGGCUUAGGUGGCGCGAUAGCGCCAACGUCCUCAACCUCCAAUGCAUCCCACCACAUGAUGAUGCCUGAAGAGCCUUGGUUUUUUG [G10A C56A],0.127
5,GACCAAUCUACCUUCAGAGCUCGAGAACAUCUUCGGAUGCAGAGGAGGCAGGCUUCGGUGGCGCGAUAGCGCCAACGUCCUCAACGUCCAAUGCAUCCCACCACAUGAUGAUGCCUGAAGAGCCUUGGUUUUUUG [G10A C13U C86G],-0.113
6,GACCAAUCUACCUUCAGAGCUCGAGAACAUCUUCGGAUGCAGAGGAGGCAGGCUUCGGUGGCGAGAUAGAGCCAACGUCCUCAACCUCCAAUGCAUCCCACCACAUGAUGAUACCUGAAGAGCCCUGGUUUUUUG [G10A C13U C64A C70A G113A U125C],-6.12
7,GACCAAUCUACCCUCCGAGCUCGAGAACAUCUUCGGAUGCAGAGGAGGCGGGCUUCGGUGGCGCGAUAGCGCCAACGUCCUCAACCUCCAAUGCCUCCCACCACAUGAUGAUGCCUGAAGAGCCUUGGUUUUUUG [G10A A16C A50G A95C],-3.07
8,GACCAAUCUACCCUCAGAGCUCGAGAAUAUCUUCGGAUGCAGAGGUGGCAGGCUUCGGUGGCGCGAUAGCGCCAACGUCCUCCCCCUCCAAUGCAUCCCACCACAUGAUGAUGCCUGAAGAGCAUUGGUUUUUUG [G10A C28U A46U A83C A84C C124A],-2.98
9,GACCAAUCUACCCUCAGAGCUCGAGAACAUCUUCGGAUGCAGAGGAGGCAGGUUUCGGUGCCGCGAUAGCGCCAACGUCCUCAACCUCCAAUGCAUCCCACCACAUGAUGAUGCCUGAAGAACCUUUGAUUUUUG [G10A C53U G61C G122A G127U U129A],0.0511
10,GACCAAUCUACCCUCUGAGCUCGAGAACAUCUUCGGAUGCAGAGGAGGCAGGCUUCGGUGGCGCGCUAGCGCCAACGUCCUCAACCUACAACGCAUCCCACCACAUGAUGAUGCCUGAAUAGCCUUGGUUUUUUG [G10A A16U A66C C88A U92C G120U],-3.94
11,GACCAAUCGGCCCUCAGAGCUCGAGAACAUCUUCGGAUGCAGAGGAGGCAGGCUUCGGGGGCGCGAUAGCGCCAACGUCCUCAACCUCCAAUGCAUCCCACCACAUGAUGAUGCCUGAAGAGCCUUGGUUUUUUG [U9G U59G],0.701
12,GACCAAUCUACCUUCAGAGCUCGAGAACAUCUUCGGAUGCAGAGUAGGCAGGCUUCGGUGGCGCGAUAGCGCCAACGUCCUCAACCUCCAAUGCAUCCCACCACAUGAUGAUGCCUAAAGAGCCUUGGUUUUUUG [G10A C13U G45U G117A],-0.718
13,GACCAAUCUACCCUCAGAGCUCGAGAACAUCUUCGGAUGCAGAGGAGGCAGGCUUAGGUGGCGCGAUAGCGCCAACGUCCUCAACCUCCAAUGCAUCCCACCACAUGAUAAUGCCUGAAGAGCCUUGGUUUUUUG [G10A C56A G110A],-0.729
14,GACCAAUCUACCCUCAGAGCUCGAGAACAUCUUCGGAUGCAGAGGAGGCAGGCUUCGGUGGCGCGAUAGCGCCAAGGUCCUCAACCUCCAAUGCAUCCCACCACAUGAUGAUGCCUGAAAAGCCUUGGUUUUUUG [G10A C76G G120A],1.28
15,GACCAAUCUACCCUCAGAGCUCGAGAACAUCUUCGGAUGCAGAGGAGGGAGGCUUCGGUGGCGCGAUAGCGCCAACGUCCUCAACCUCCAAUGCAUCCCACCACAUGAUGAUGCCUGAAGAGCCUUGGUUUUAUG [G10A C49G U133A],-0.21
16,GACCAAUCUACCCUCAGAGCUCGAGAACGUCUUCGGAUGCAGUGGAGGCAGGCUUCGGUGGCGCGAUAGUGCCAACGUCCUCAACCUCAAAUGCAUCCCACCACAUGAUGAUGCCUGAAGAGCCUUGGUUUUUUG [G10A A29G A43U C70U C89A],-4.19
17,GACCAAUCUACCCUCAGAGCUCGCGAACGUCUUUGGAUGCAGAAGAGGCAGGUUUCGGUGGCGCGAUAGCGCCAACGUCCUCAACCUCCAAUGCAUCUCACCACAUGAUGUUGCCUGAAGAGCCUUGGUUUUUUG [G10A A24C A29G C34U G44A C53U C98U A111U],-7.41
18,GACCAAUCUACGCUCAGAGCCCGAGAACAUCUUCGGAUGCAGAGGAGGCAGGCUUCGGUGGCGCGAUAGCGCCAACGUCCUCAACCUCCAAUGCAUCCCACCACAGGAUGAUGGCAGAAGAGCCUUGGUUUUUUG [G10A C12G U21C U106G C114G U116A],-6.06
19,GACCAAUCUACCCUCAGUGCUCGAGAACAUCUUCGGAUGUAGAGGAGGCAGGCUUCGGGGGCGCGAUAGCGCCAACGUCCUCAACCUCCAAUACAUCCCACCACAUGAUGAUGCCUGAAGAGCCUUGGUUUUUUG [G10A A18U C40U U59G G93A],-2.28
20,GACCAAUCUACCCUCAGAGCUUGAGAACAUCUUUGGAUGCAGAGGAGGCAGGCUUCGGUGGCGCGAUAGCGACAACGUCCUCAACCUCCAAUGCAUCCCACCACAUGAUGAUGCGUGAAGCUCCUUGGUUUUUUG [G10A C22U C34U C72A C115G A121C G122U],-8.04
21,GACCAAUCUAUCCUCAGAGCUCGAGAACAUCUUCGGAUGUAGAGGAGGCAGGCUUCGGUGGCGCGAUAGCGGCAACGUCCUCAACCUCCAAUGCAUCCCACCAGAUGAUGAUGCCUGAAGAGCUUUGGUUUUCUG [G10A C11U C40U C72G C104G C124U U133C],-5.5
